Measurements published in article PMC10467048.

Tests used:
[1] = target: LTB−JEV EDIII (TEV cut) (not stated | Japanese encephalitis virus); assay: SEC
[2] = target: LTB−JEV EDIII (TEV cut) (not stated | Japanese encephalitis virus); assay: PAGE under non-reduced conditions (without boiling, without DTT)
[3] = target: LTB−JEV EDIII (TEV cut) (not stated | Japanese encephalitis virus); assay: PAGE after incubation at different temperatures
[4] = target: CTB−JEV EDIII (not stated | Japanese encephalitis virus); assay: PAGE under non-reduced conditions (without boiling, without DTT)
[5] = target: CTB−JEV EDIII (not stated | Japanese encephalitis virus); assay: PAGE after incubation at different temperatures

Substance | stoichiometry N [1] | stoichiometry N [2] | stoichiometry N [3] | stoichiometry N [4] | stoichiometry N [5]
LTB−JEV EDIII (TEV cut) | 5 | 5 | 5 | – | –
CTB−JEV EDIII | – | – | – | 5 | 5
